In US20030049702A1 (BURNHAM INSTITUTE, published 2003):

Key:
Test in all cases: GST pull-down of in vitro translated 35S-labeled protein, autoradiography; '-' = no interaction
[1] = target: c-Flip (in vitro translated, 35S-labeled) (human, UniProt O15519 1-480)
[2] = target: T1, Fas (in vitro translated, 35S-labeled) (human, UniProt P25445 1-335, limits assumed)
T1 construct: also called Fas [CD95]
T1 sequence (looked up): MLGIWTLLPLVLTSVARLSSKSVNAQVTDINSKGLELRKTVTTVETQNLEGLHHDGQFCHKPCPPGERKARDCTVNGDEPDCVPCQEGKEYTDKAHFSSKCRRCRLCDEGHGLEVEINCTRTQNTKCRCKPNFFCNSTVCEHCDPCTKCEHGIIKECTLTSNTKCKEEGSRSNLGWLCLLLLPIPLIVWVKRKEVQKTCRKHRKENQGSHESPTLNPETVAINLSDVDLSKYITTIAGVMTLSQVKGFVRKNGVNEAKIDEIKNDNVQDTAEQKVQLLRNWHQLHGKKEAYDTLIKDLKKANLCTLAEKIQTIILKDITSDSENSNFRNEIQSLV

[3] = target: RAIDD (in vitro translated, 35S-labeled) (human, UniProt P78560 1-199)
[4] = target: T2, FADD (in vitro translated, 35S-labeled) (human, UniProt Q13158 1-208)
T2 sequence (looked up): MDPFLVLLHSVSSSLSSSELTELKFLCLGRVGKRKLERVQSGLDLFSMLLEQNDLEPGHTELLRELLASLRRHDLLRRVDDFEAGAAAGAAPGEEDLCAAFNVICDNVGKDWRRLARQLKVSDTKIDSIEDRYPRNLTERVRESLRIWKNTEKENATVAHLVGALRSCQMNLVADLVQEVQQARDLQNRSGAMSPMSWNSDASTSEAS

[5] = target: Dr-4 (in vitro translated, 35S-labeled) (human, UniProt O00220 1-468, limits assumed)
[6] = target: T3, RIP (in vitro translated, 35S-labeled) (human, UniProt Q13546 1-671, limits assumed)
T3 sequence (looked up): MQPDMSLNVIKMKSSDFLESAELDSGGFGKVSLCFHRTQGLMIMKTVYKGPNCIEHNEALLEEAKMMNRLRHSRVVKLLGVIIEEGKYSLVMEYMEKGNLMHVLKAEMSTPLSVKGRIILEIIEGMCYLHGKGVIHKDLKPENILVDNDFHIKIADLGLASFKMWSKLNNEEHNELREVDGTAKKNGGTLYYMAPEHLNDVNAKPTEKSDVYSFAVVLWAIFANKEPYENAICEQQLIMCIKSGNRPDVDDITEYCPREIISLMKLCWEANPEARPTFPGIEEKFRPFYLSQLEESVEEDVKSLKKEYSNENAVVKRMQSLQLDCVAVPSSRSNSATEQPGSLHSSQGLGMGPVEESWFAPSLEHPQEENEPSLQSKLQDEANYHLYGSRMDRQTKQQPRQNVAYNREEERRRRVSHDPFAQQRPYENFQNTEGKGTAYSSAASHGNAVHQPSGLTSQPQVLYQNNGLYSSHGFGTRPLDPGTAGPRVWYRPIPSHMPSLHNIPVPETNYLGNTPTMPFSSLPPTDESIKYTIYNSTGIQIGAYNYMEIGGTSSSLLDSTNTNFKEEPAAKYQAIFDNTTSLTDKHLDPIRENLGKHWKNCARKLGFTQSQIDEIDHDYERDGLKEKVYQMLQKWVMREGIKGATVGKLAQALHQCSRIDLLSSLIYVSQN

[7] = target: Dr-5 (in vitro translated, 35S-labeled) (human, UniProt O14763 1-440, limits assumed)
[8] = target: T4, TNF-RI (in vitro translated, 35S-labeled) (human, UniProt P19438 1-455, limits assumed)
T4 construct: also called TNFR1
T4 sequence (looked up): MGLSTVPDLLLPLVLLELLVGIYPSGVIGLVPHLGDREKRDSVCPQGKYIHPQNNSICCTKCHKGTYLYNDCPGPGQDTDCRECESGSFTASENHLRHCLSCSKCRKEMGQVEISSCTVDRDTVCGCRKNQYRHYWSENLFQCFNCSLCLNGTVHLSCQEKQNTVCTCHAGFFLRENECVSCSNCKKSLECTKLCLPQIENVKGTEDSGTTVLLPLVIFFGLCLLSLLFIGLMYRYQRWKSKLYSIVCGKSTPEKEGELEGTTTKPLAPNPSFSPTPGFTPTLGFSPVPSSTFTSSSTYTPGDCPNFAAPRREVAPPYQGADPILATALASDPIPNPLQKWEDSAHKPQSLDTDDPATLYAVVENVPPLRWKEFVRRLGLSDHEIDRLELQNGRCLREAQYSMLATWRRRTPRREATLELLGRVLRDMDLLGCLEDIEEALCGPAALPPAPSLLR

Measured: binding result

Chain of RAIDD (in vitro translated, 35S-labeled) (P78560 whole entry): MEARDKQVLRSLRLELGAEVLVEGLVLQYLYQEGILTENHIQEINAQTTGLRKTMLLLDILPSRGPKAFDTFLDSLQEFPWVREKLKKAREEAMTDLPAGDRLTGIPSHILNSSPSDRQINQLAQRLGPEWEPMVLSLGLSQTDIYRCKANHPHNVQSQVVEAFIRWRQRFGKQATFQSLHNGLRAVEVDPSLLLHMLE
Chain of c-Flip (in vitro translated, 35S-labeled) (O15519 whole entry): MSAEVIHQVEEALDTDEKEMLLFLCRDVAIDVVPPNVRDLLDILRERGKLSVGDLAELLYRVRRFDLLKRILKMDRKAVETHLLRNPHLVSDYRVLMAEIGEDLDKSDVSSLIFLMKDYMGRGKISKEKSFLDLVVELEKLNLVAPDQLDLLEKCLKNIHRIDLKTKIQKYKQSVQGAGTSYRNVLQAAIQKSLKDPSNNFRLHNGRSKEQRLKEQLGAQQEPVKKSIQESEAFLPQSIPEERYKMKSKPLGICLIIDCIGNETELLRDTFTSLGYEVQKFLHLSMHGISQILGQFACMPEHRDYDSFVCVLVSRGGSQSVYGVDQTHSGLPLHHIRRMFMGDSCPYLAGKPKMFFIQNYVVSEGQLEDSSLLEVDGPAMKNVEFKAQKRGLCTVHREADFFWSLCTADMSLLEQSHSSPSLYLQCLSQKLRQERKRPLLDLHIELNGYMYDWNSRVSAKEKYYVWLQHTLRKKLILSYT

B1: GST-CD40 (cytosolic domain) (other, UniProt P25942 216-277, looked up)
chain: KKVAKKPTNKAPHPKQEPQEINFPDDLPGSNTAAPVQETLHGCQPVTQEDGKESRISVQERQ
notes: domain: cytosolic domain; Control fusion protein; not shown: glutathione S-transferase
no binding: all assays above
